Reference: patent US11142588B2, “Polypeptides which bind C-X-C chemokine receptor type 4 (CXCR4) and methods of treating or reducing the risk of fibrosis and cancer” (AdAlta Limited, priority 2015, dated 2021)

Columns and labels:
[1] = system: Human platelet rich plasma; test: SDF-1α induced platelet aggregation; format: cell-based; conditions: 10 or 20 ug/mL, 100 nM SDF-1 alpha
Method: Experiments were carried out to examine whether the i-bodies could block platelet aggregation induced by SDF-1α. […] In the presence of negative control i-body 21H5 (or the isotype control for 12G5: mouse IgG2a). SDF-1 induced a robust and reproducible aggregation (the descending black curves, which indicate an increase in light transmission), which matches with what has been previously published.

[2] = system: human CD34+ stem and progenitor cells; test: Mobilisation of human CD34+ cells in humanised NSG mice; format: in vivo, humanized NODSIL2Rγ (NSG) mice; conditions: humanised NSG mouse model, compared to AMD3100
Method: To acquire evidence of mobilisation of human CD34^+ stem and progenitor cells using CXCR4 i-bodies, the above mobilisation experiment was conducted in humanized NODSIL2Rγ (NSG) mice. NSG mice are severely immunodeficient and lack mature T cells, B-cells and NK cells and have severely defective innate immunity, which allows engraftment of human cells without subsequent rejection. NSG mice were transplanted with freshly sorted CD34^+ cord blood cells and upon confirmation of positive human CD45/CD34 engraftment (˜4-5 weeks) were used as a mouse model for human stem cell mobilisation.
Mobilised peripheral blood was harvested and assessed for CD34^+ (human stem and progenitors).

[3] = MOG induced experimental autoimmune encephalomyelitis (EAE); format: in vivo, mouse; conditions: immunohistochemistry, hematoxylin and eosin
Method: This is the time that has been reported to be critical for infiltration of inflammatory cells across the blood brain barrier. […] It appears that blocking this migration can alleviate the symptoms of EAE.
Immunohistochemistry of the brains of the experimental mice was performed.

[4] = Bleomycin mouse model of pulmonary fibrosis; format: in vivo; conditions: day 4, dose not given
Description: The optimal dose of Bleomycin is 2 U/mouse and the optimal time for assessing fibrocyte recruitment was confirmed at day 4. At days 4 bronchoalvelolar lavage (BAL) fluids were collected for analysis of SDF-1 concentration. One half of the lung tissue was used to make single cell suspensions of the lung and the cells used for flow cytometry and assayed for CD45+, CXCR4+ and Collagen1+ (fibrocytes). The other half of the lung tissue was Sircol stained for the presence of collagen 1 and RNA will be tested for Col-1, Col-3 and SDF-1.
SDF-1, fibrocytes and collagen deposition were monitored at Day 4. Groups were dosed with the i-body just prior to administration with Bleomycin. One half of the lung tissue was minced and washed in PBS and used to make single cell suspensions of the lung with Collagenase A and dispase treatment. The cells were then used for flow cytometry and assayed for CD45+, CXCR4+ and Collagen1+ fibrocytes. […]

[5] = Murine air pouch model with SDF-1; format: in vivo, BALB/c mice; conditions: intraperitoneal, 30 minutes before SDF-1 6 μg
Method: The ability of i-bodies to block inflammation was evaluated in an in vivo murine air pouch model. The subcutaneous (s.c.) air pouch is an in vivo model used to study acute and chronic inflammation (Durate et al, Models of Inflammation: Carrageenan Air Pouch, Current Protocols in Pharmacology 5.6.1-5.6.8, March 2012). Injection of irritants into an air pouch in rats or mice induces an inflammatory response that can be quantified by the volume of exudate produced, the infiltration of cells, and the release of inflammatory mediators. An air pouch, is generated by injection of sterile air under the skin of the back of the mouse. […] Air pouch lavage fluid is then analyzed for cell trafficking and cytokine release.
The air pouch assay was performed on 7-week-old BALB/c mice. On days 1 and 3, 0.2 ml/g initial body weight (IBW) of sterile air was injected under the back skin to create the pouch. […] Thirty minutes later, SDF-1 (6 μg) was injected into the pouch. Four hours later, the mice were killed in a CO2 chamber and the air pouch was washed. Cells were collected, counted, and characterized by flow cytometry.

[6] = system: HIV entry into CXCR4 expressing T-cells; test: In vitro HIV inhibition assay; format: cell-based
Ramos tumor cells = test: MTT cell proliferation assay; format: cell-based, human; conditions: 24 to 72 hrs, AM3-114 at 10 μM
Method: The ability of the CXCR4 molecules or polypeptides disclosed herein (i-bodies) to inhibit proliferation of Ramos tumor cells, a human Burkitt's lymphoma cell line expressing CXCR4 mentioned above, in vitro was examined in a MTT cell proliferation assay as described in (Lapteva (2005) Cancer Gene Therapy 12, 84-89). Cells were grown in a 96-well tissue culture plate and treated with a vehicle or the anti-CXCR4 body. The cells were then incubated with the MTT solution for approximately 4 hours. After this incubation period, a water-insoluble formazan dye is formed. After solubilization, the formazan dye is quantitated using a scanning multi-well spectrophotometer (ELISA reader).

[7] = system: normal and IPF lung fibroblasts; test: Wound healing invasion assay of lung fibroblasts; format: cell-based, human; conditions: AMD3100 12 μM, 21H5 130 μg/ml
Method: To determine the role of CXCR4 and CXCL12 in fibroblast invasion, normal and IPF lung fibroblasts were utilized in a wound healing invasion assay. ImageLock 96 well plates (Essen Bioscience) were coated with 50 μg/ml of Basement membrane extract (BME; Trevigen) for one hour at room temperature. Normal, and fibroblasts generated from lung biopsies of idiopathic pulmonary fibrosis (IPF) patients showing slow progression or rapid progression of the disease were plated (36,000 cells per well) on the BME-coated plates and incubated overnight. […] The BME was allowed to polymerize by incubating the plate at 37° C. for 15 minutes. The plates were then inserted into an IncuCyte Zoom imaging system and images were acquired every 2 hours for approximately 50 hours. Invasion was quantified using IncuCyte software (Essen Bioscience).

B1: 21H5: control i-body which does not bind to CXCR4, isotype control, SEQ ID NO: 82 (protein)
chain: LQVDIVPSQGEISVGESKFFLCQVAGDAKDKDISWFSPNGEKLTPNQQRISVVWNDDSSSTLTIYNANIDDAGIYKCVVTGSDAMSNYSYPISESEATVNVKIFQ
modifications: amino acid sequence encoding 21H5 i-body
**Q.** With B1 as the molecule, how does the “blocking of SDF-1α induced platelet aggregation” value [1] read?
**A.** Neither the negative control i-body nor the control MAb had any effect

**Q.** And the “mobilisation of human CD34+ stem cells” value [2]?
**A.** do not mobilise stem cells

**Q.** What about the “inflammatory T-cell infiltration into the white matter of the brain” value [3] of the same molecule?
**A.** Dramatic T-cell infiltration

**Q.** What about the “recruitment of fibrocytes into the lungs” value [4] of the same molecule?
**A.** Neither the vehicle alone nor the negative control i-body affected recruitment

**Q.** And the “cell migration / leukocyte infiltration into the air pouch” value [5]?
**A.** did not inhibit cell migration

**Q.** And the “effect in HIV inhibition assay” value [6]?
**A.** no effect

**Q.** What about the “growth of RAMOS cells” value (Ramos tumor cells) of the same molecule?
**A.** little effect on cell growth

**Q.** And the “invasion / motility of normal, slow and rapid IPF lung fibroblast lines” value [7]?
**A.** had no effect
